The subject of the data set is MS2 coat protein. As to the kind of experiment: apparent KD of MS2 coat protein; designed switch direction (-1 OFF switch, 1 ON switch): -1; higher = weaker reporter binding. The method in brief: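 Designed RNA switches were transcribed on Illumina chips by stalled E. coli RNA polymerase and titrated with SNAP-549-labelled MS2 coat protein from 0.7 or 1.5 nM, doubling to 3 µM. Step length ran from 0.8–1.5 h at the lowest concentration to 10–20 min at the highest. The apparent KD is the median over clusters for each design, from curve-fitted normalised cluster fluorescence.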

Setting [1] is: Eterna round: R95, input ligand: microRNA oligo, concentration not stated.
The mark [2] stands for this setting: Eterna round: R95, input ligand: FMN 200 uM.
[3] abbreviates: Eterna round: R95, input ligand: none.
[4] abbreviates: input ligand: microRNA oligo, concentration not stated.

Turning to “UUAUCAUGCUUUAGAUCCUACAUGAGGAUCACCCAUGUGCUCGUCUUGUAUCGUUCUGUGUCGUAAGUCUCUGUUCG [mod Jandersonlee designer] (Eterna round: R97, puzzle: Sensor, turn-off variant 1)”, the “apparent KD of MS2 coat protein” value (input ligand: FMN 200 uM) amounted to 924 nM and the “apparent KD of MS2 coat protein” value (input ligand: none) came to 1390 nM.

Regarding “UUAUGAGAGCAGGAUAUCUUAUAAGUGUAUUAAAGAGAAGGGCUCACAUGAGGAUCACCCAUGUGGUCCUAGAU [LRO-Excl6-17-mod of 4.86 by jal] (Eterna round: R97, puzzle: Exclusion 6)”, the “apparent KD of MS2 coat protein” value is 106 nM (input ligand: FMN 200 uM) and 33.3 nM (input ligand: none).

Turning to “UUAUGAGAGCAGGAUAUCUUAUUUUUUUUUUGUGGAGAAGGGCUCACAUGAGGAUCACCCAUGUGGUCCUAGAU [LRO-Excl6-25-mod of 4.86 by jal] (Eterna round: R97, puzzle: Exclusion 6)”, the “apparent KD of MS2 coat protein” value is, setting by setting: (input ligand: FMN 200 uM) 47.4 nM; (input ligand: none) 32.9 nM.

As to “UUAUUAAGUGUGAGGAUAUGCUGGUCCUUGGAUCAGCAGAAGGCACAUGAGGAUCACCCAUGUACAAUAUUUUA [Mat - Exclusion 4 - JL Mod - D29] (puzzle: Brourd's mod of Exclusion 4)”, the “apparent KD of MS2 coat protein” value under setting [1] came to 35.8 nM.

For the sequence “UUAUUACAAGCAAGAUCCUACAUGAGGAUCACCCAUGUGCUCGUCUUGUAAGGUACAGUGACGAAAGUCACAGUACC [Sensor 3, v1 - 000] (puzzle: Sensor v3, turn-off variant 1)”, the “apparent KD of MS2 coat protein” value is, setting by setting: under setting [2], 24.7 nM; under setting [1], 302 nM; under setting [3], 24.9 nM.

Regarding “UUAUUAUAUGAAGGAUAUACUUAACAUGAGGAUCACCCAUGUGGUGUUGUGAGUGAGUGAGUUUAGUAGAAGGUCAAUGAUUUU [JMF's solution 72] (Eterna round: R96, puzzle: Exclusion NG 2)”, the “apparent KD of MS2 coat protein” value is 1490 nM (input ligand: FMN 200 uM), 186 nM under setting [4] and 428 nM (input ligand: none).

For the sequence “UUAUUAUAUGUAGGAUAUGCAUAUUGUUGUUAUGCAGAAGGACAUGAGGAUCACCCAUGUAUAUUAUUGUUGUAUAUUAUAUAU [Title] (Eterna round: R96, puzzle: Exclusion NG 1)”, the “apparent KD of MS2 coat protein” value reads like this: (input ligand: FMN 200 uM) 37.4 nM; under setting [4], 17.5 nM; (input ligand: none) 24.1 nM.

With “UUAUUGUGUGUAGGAUAUGCGUGUUAUUAUUAUGCAGAAGGACAUGAGGAUCACCCAUGUGUAUUAUUAUUAUAUAUUAUAUAU [Title] (Eterna round: R96, puzzle: Exclusion NG 1)”, the “apparent KD of MS2 coat protein” value (input ligand: FMN 200 uM) was 45.3 nM, the “apparent KD of MS2 coat protein” value under setting [4] is 27.2 nM and the “apparent KD of MS2 coat protein” value (input ligand: none) was 27.7 nM.

Consider “UUCACAUGGACAUGAGAUCACAUGAGGAUCACCCAUGUGAAUAACAAGCUUUUUGUUCGUCUUAUGUCCAAUAAUAU [Stov1/14-D2] (Eterna round: R97, puzzle: Sensor, turn-off variant 1)”, for which the “apparent KD of MS2 coat protein” value runs as follows: (input ligand: FMN 200 uM) 13.7 nM; (input ligand: none) 10.5 nM.

Regarding “UUCAUGUGAGGAUAUGUGAUCUGCUUUCUGUUUAGAUGAUCACAGAAGGCACAUGAGGAUCACCCAUGUAGAUC [Ex4 - 3 - 30] (puzzle: Exclusion 4)”, the “apparent KD of MS2 coat protein” value under setting [1] was determined as 60.5 nM.

For “UUCCCACAUGAGGAUCACCCAUGUGAGGAUAUGGAGCGCGACCGCGCGGUCGCGUACACCAGAAGGCGCAUGAU [1st #80] (Eterna round: R97, puzzle: Exclusion 1)”, the “apparent KD of MS2 coat protein” value was found to be 21 nM (input ligand: FMN 200 uM) and 16.2 nM (input ligand: none).

Turning to “UUGAACAUAGGAUAUAGUUGUUUGUACAUGAGGAUCACCCAUGUUAGGGAUGUUUUGUUUCUAGAAGGAUGUUGAU [JR_E5_Sub001] (puzzle: Exclusion 5)”, under setting [1], the “apparent KD of MS2 coat protein” value amounted to 128 nM.

Take “UUGAAGUCAUCAGGAUAUAGUUUUAAUGUCAUGCUUAAGUUCUUACAUGAGGAUCACCCAUGUCGCUAGAAGGGAUUAUAGAUU [JR_ExcNG2_Sub078] (Eterna round: R96, puzzle: Exclusion NG 2)”: the “apparent KD of MS2 coat protein” value is, setting by setting: (input ligand: FMN 200 uM) 66.8 nM; under setting [4], 42.6 nM; (input ligand: none) 67.7 nM.

In the case of “UUGAAUUAACAGGAUAUGGGAGUCGAUAGACACCCAGAAGGGUUAACAUGAGGAUCACCCAUGUGUCCUAUCAA [Mod of Eli 23 - Jieux - Exclusion 6] (Eterna round: R97, puzzle: Exclusion 6)”, the “apparent KD of MS2 coat protein” value reads like this: (input ligand: FMN 200 uM) 94.8 nM; (input ligand: none) 36.5 nM.

In the case of “UUGACGGCAGGAUAUACAUGAGGAUCACCCAUGUAAAUUUUUCGUUUAACUUGAAUGUGUAGAAGGGCCCAACC [Ex3 #78] (Eterna round: R97, puzzle: Exclusion 3)”, the “apparent KD of MS2 coat protein” value (input ligand: FMN 200 uM) stood at 16.6 nM and the “apparent KD of MS2 coat protein” value (input ligand: none) stood at 17.8 nM.

For the sequence “UUGGAGAGAGGAUAUCCCUAGUUUAACAUGAGGAUCACCCAUGUGCGCGUCAAGUCGAAAGGAGAAGGUUCGGCGA [Eternabot (L1) Solution 5] (Eterna round: R97, puzzle: Exclusion 5)”, the “apparent KD of MS2 coat protein” value is, setting by setting: (input ligand: FMN 200 uM) 32.7 nM; (input ligand: none) 26.8 nM.

On to “UUGGAGAUAGGAUAUACGAGGAGAGUUGAGGGAAGGUGAUGACAUGAGGAUCACCCAUGUAGAAGGAUCAGGAG [JR_Exclu2_Sub069] (Eterna round: R96, puzzle: Exclusion 2)”, for which the “apparent KD of MS2 coat protein” value is, setting by setting: (input ligand: FMN 200 uM) 169 nM; under setting [4], 98.8 nM; (input ligand: none) 172 nM.

With “UUGGAGAUAGGAUAUACGAGGAGAGUUGAGGGAAGGUGAUGACAUGAGGAUCACCCAUGUAGAAGGAUCAGGAG [JR_Exclu2_Sub069] (puzzle: Exclusion 2)”, under setting [1], the “apparent KD of MS2 coat protein” value turned out to be 118 nM.

With “UUGUAACGAUUAGGAUAUUAUUAAUAGAACUUUAUGAUAUACAUGAGGAUCACCCAUGUUACUUUUAAGAAGGAAUCGUAUUAU [JR_ExcNG2_Sub091] (Eterna round: R96, puzzle: Exclusion NG 2)”, the “apparent KD of MS2 coat protein” value under setting [4] stood at 17 nM.

In the case of “UUGUACCGGUGAGGAUAUUUUUAAUAGAGCUUUAUGAUAUACAUGAGGAUCACCCAUGUUACGUUAAAGAAGGCAUCGGAUUAU [JL JR Sub091 mod 4] (Eterna round: R96, puzzle: Exclusion NG 2)”, the “apparent KD of MS2 coat protein” value runs as follows: (input ligand: FMN 200 uM) 18.6 nM; under setting [4], 13.9 nM; (input ligand: none) 21.6 nM.

For the sequence “UUGUACCGGUGAGGAUAUUUUUGAUAGAACUUUAUGAUAUACAUGAGGAUCACCCAUGUUACUUUAAAGAAGGCAUCGGAUUAU [JL JR Sub091 mod 2] (Eterna round: R96, puzzle: Exclusion NG 2)”, the “apparent KD of MS2 coat protein” value under setting [4] is 14.3 nM.

In the case of “UUGUCUAAUGUGAGGAUAUGCUGGUCCAUAGAUCAGCAGAAGGCACAUGAGGAUCACCCAUGUGAUAACACAAU (Eterna round: R97, puzzle: Brourd's mod of Exclusion 4)”, the “apparent KD of MS2 coat protein” value was 296 nM (input ligand: FMN 200 uM) and 21.3 nM (input ligand: none).

As to “UUGUUAUAUGUAGGAUAUGCGUAUUAUUAUUAUGCAGAAGGACAUGAGGAUCACCCAUGUAUAUUAUUAUUAUAUAUUAUAUAU [Title] (Eterna round: R96, puzzle: Exclusion NG 1)”, under setting [4], the “apparent KD of MS2 coat protein” value came out at 21.9 nM.

As for “UUGUUCUGAGGAUAUACAUGAGGAUCACCCAUGUGUUUCUGCUUGGAGACUAGCGAAUGUAGAAGGCUGUUCUC [salish99_ex3_r4_021] (Eterna round: R97, puzzle: Exclusion 3)”, the “apparent KD of MS2 coat protein” value came to 15.2 nM (input ligand: FMN 200 uM) and 14.2 nM (input ligand: none).

With “UUGUUGUAUGUAGGAUAUGCGUAUUAUUAUUAUGCAGAAGGACAUGAGGAUCACCCAUGUGUAUUAUUAUUAUAUAUUAUAUAU [Title] (Eterna round: R96, puzzle: Exclusion NG 1)”, the “apparent KD of MS2 coat protein” value (input ligand: FMN 200 uM) came to 44.3 nM, the “apparent KD of MS2 coat protein” value under setting [4] came to 20.8 nM and the “apparent KD of MS2 coat protein” value (input ligand: none) was found to be 19.7 nM.

Consider “UUGUUUUCCGCAGGAUAUGCUCCUCUAUUACUAGCAGAAGGGCGUUGAACAUGAGGAUCACCCAUGUAUGUAAUUGCUUAUUGC [JR_ExcNG1_Sub074] (Eterna round: R96, puzzle: Exclusion NG 1)”, for which the “apparent KD of MS2 coat protein” value is 19.3 nM (input ligand: FMN 200 uM), 17.5 nM under setting [4] and 24.4 nM (input ligand: none).

For “UUUAAACAUGAGGAUCACCCAUGUAAGGAUAUACGAAUGCAGACACACACGGAUGCAAGUAGAAGGUACAAUGC [Design #9] (Eterna round: R97, puzzle: Exclusion 1)”, the “apparent KD of MS2 coat protein” value was 37.6 nM (input ligand: FMN 200 uM) and 42.6 nM (input ligand: none).

For “UUUAAACAUGAGGAUCACCCAUGUUAGGAUAUACGCAUGCAGACACGCACGGAUGCAAGUAGAAGGAACCAUGC [Design #6] (Eterna round: R97, puzzle: Exclusion 1)”, the “apparent KD of MS2 coat protein” value amounted to 27.9 nM (input ligand: FMN 200 uM) and 31.3 nM (input ligand: none).

As for “UUUAAGUCAGGAUAUACAUGAGGAUCACCCAUGUAAAAUUUUAAUUUAAUUUUAAGGUGUAGAAGGGACAAUUU [Ex3 #3] (Eterna round: R97, puzzle: Exclusion 3)”, the “apparent KD of MS2 coat protein” value runs as follows: (input ligand: FMN 200 uM) 29.5 nM; (input ligand: none) 34.9 nM.

With “UUUAAUUUUUUUUUUUUACAAGCUUUUUGCUCGUCUUAUACAUGAGGAUCACCCAUGUAAAUGGAAGGUAAAUUAUC [JMF 67] (puzzle: Sensor v3, turn-off variant 2)”, the “apparent KD of MS2 coat protein” value runs as follows: under setting [2], 15.5 nM; under setting [1], 17.3 nM; under setting [3], 13.5 nM.

For the sequence “UUUAAUUUUUUUUUUUUACAAGCUUUUUGCUCGUCUUAUACAUGAGGAUCACCCAUGUAAGUGGGAAAUGAAUUAUC [JMF 99] (puzzle: Sensor v3, turn-off variant 2)”, the “apparent KD of MS2 coat protein” value under setting [2] worked out at 53.3 nM, the “apparent KD of MS2 coat protein” value under setting [1] was found to be 419 nM and the “apparent KD of MS2 coat protein” value under setting [3] turned out to be 77.9 nM.

The values above are taken from the supplement of paper PMC9170038.
